Test results taken from publication PMC12089766.

Columns and labels:
[1] = target: Arabidopsis cytosolic glyceraldehyde-3-phosphate dehydrogenase (GAPC1), recombinant, His-tagged (Arabidopsis thaliana) (UniProt P25858); test: MST; GAPC1 labelled on its His tag (RED-tris-NTA 2nd Generation), 50 nM; cyclo(His-Pro) titrated; 50 mM Tris-HCl pH 8.0 with 1.6 mM NAD+; premium capillaries, Monolith X; binding from the spectral shift A670/A650
[2] = target: Arabidopsis cytosolic glyceraldehyde-3-phosphate dehydrogenase (GAPC1), recombinant, His-tagged (Arabidopsis thaliana) (UniProt P25858); test: nano-differential scanning fluorimetry (nanoDSF); about 0.8 ug protein per capillary in 50 mM Tris-HCl pH 8.0; ligands at 100 uM (cyclo(Tyr-Asp) also at 500 uM and 1 mM); ramp 2 °C/min, 20 to 90 °C; shift of the melting temperature against mock
[3] = target: human glyceraldehyde-3-phosphate dehydrogenase (GAPDH), recombinant, His-tagged (human) (UniProt P04406)
[4] = target: Arabidopsis cytosolic glyceraldehyde-3-phosphate dehydrogenase (GAPC1), recombinant, His-tagged (Arabidopsis thaliana) (UniProt P25858)

Sequence of UniProt P25858 (P25858 whole entry): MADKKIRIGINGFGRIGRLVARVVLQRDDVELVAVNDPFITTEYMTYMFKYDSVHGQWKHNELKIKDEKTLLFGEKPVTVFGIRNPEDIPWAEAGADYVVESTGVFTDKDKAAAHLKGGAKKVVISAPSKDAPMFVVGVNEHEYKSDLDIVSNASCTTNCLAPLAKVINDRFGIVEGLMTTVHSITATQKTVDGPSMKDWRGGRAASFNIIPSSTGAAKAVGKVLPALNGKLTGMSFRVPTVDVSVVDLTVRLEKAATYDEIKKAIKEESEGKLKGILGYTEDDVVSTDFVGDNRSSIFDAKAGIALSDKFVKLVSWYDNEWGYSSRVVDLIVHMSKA
Sequence of UniProt P04406 (P04406 whole entry): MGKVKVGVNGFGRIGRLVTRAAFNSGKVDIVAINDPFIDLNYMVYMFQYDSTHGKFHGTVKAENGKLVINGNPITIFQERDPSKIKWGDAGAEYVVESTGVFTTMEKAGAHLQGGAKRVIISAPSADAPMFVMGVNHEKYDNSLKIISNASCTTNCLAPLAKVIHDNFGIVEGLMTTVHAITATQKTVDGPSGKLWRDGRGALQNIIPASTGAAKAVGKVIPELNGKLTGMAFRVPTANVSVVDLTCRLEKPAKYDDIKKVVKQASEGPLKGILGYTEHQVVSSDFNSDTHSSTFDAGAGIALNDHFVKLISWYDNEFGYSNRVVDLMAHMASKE

Substance | Kd [1] | shift of the melting temperature at 100 μM ligand [2] | IC50 of inhibition of GAPDH enzymatic activity [3] | IC50 of inhibition of GAPC1 enzymatic activity (oxidation of glyceraldehyde-3-phosphate, reduction of NAD+ to NADH) [4] | IC50 of inhibition of enzymatic activity [4]
cyclo(His-Pro), cyclo(L-histidyl-L-proline) (peptide) | 40 µM | > 4 °C | 70 µM | 200 µM | –
cyclo(Tyr-Asp), cyclo(L-tyrosyl-L-aspartic acid) (peptide) | – | – | – | – | 1500 µM
